Laboratory results published in patent publication US20260049138A1 (Chugai, published 2026).
Residue numbers refer to the chain shown, from its start. Numbers in names are those of the source.

B1: GLS3000 N30S one-arm antibody (antibody, human IgG1, kappa, L234A L235A, N297A, name in Kabat numbering)
heavy: QVQLVESGGGVVQPGRSLRLSCAASGFTFSNAWMHWVRQAPGKGLEWVAQIKAKSNNYATYYAESVKGRFTISRDDSKNSLYLQMNSLKTEDTAVYYCRYVHYGAYYGVDAWGQGTTVTVSSASTKGPSVFPLAPSSKSTSGGTAALGCLVKDYFPEPVTVSWNSGALTSGVHTFPAVLQSSGLYSLSSVVTVPSSSLGTQTYICNVNHKPSNTKVDKKVEPKSCDKTHTCPPCPAPEAAGGPSVFLFPPKPKDTLMISRTPEVTCVVVDVSHEDPEVKFNWYVDGVEVHNAKTKPREEQYASTYRVVSVLTVLHQDWLNGKEYKCKVSNKALPAPIEKTISKAKGQPREPQVYTLPPSRCELTKNQVSLSCAVKGFYPSDIAVEWESNGQPENNYKTTPPVLDSDGSFFLVSKLTVDKSRWQQGNVFSCSVMHEALHNHYTQKSLSLSPDYKDDDDK
chain: EPKSSDKTHTCPPCPAPELLGGPSVFLFPPKPKDTLMISRTPEVTCVVVDVSHEDPEVKFNWYVDGVEVHNAKTKPREEQYNSTYRVVSVLTVLHQDWLNGKEYKCKVSNKALPAPIEKTISKAKGQPREPQVCTLPPSRDELTKNQVSLWCLVKGFYPSDIAVEWESNGQPENNYKTTPPVLDSDGSFFLYSKLTVDKSRWQQGNVFSCSVMHEALHNRYTQKSLSLSP
light: DIVMTQSPLSLPVTPGEPASISCRSSQSLVHSNRSTYLHWYQQKPGQAPRLLIYKVSNRFSGVPDRFSGSGSGTDFTLKISRVEAEDVGVYYCGQGTQVPYTFGQGTKLEIKRTVAAPSVFIFPPSDEQLKSGTASVVCLLNNFYPREAKVQWKVDNALQSGNSQESVTEQDSKDSTYSLSSTLTLSKADYEKHKVYACEVTHQGLSSPVTKSFNRGEC
B2: GLS3000 Q27D one-arm antibody (antibody, human IgG1, kappa, L234A L235A, N297A, name in Kabat numbering)
heavy: B1 heavy
chain: B1 chain
light: B1 light with Q27D, S35N
B3: GLS3000 N53I one-arm antibody (antibody, human IgG1, kappa, L234A L235A, N297A, name in Kabat numbering)
heavy: B1 heavy
chain: B1 chain
light: B1 light with S35N, N58I
B4: GLS3000 N53H one-arm antibody (antibody, human IgG1, kappa, L234A L235A, N297A, name in Kabat numbering)
heavy: B1 heavy
chain: B1 chain
light: B1 light with S35N, N58H
B5: GLS3000 N53R one-arm antibody (antibody, human IgG1, kappa, L234A L235A, N297A, name in Kabat numbering)
heavy: B1 heavy
chain: B1 chain
light: B1 light with S35N, N58R
B6: GLS3000 N53S one-arm antibody (antibody, human IgG1, kappa, L234A L235A, N297A, name in Kabat numbering)
heavy: B1 heavy
chain: B1 chain
light: B1 light with S35N, N58S
B7: GLS3000 Q27E one-arm antibody (antibody, human IgG1, kappa, L234A L235A, N297A, name in Kabat numbering)
heavy: B1 heavy
chain: B1 chain
light: B1 light with Q27E, S35N
B8: GLS3000 N53P one-arm antibody (antibody, human IgG1, kappa, L234A L235A, N297A, name in Kabat numbering)
heavy: B1 heavy
chain: B1 chain
light: B1 light with S35N, N58P
B9: GLS3000 N53K one-arm antibody (antibody, human IgG1, kappa, L234A L235A, N297A, name in Kabat numbering)
heavy: B1 heavy
chain: B1 chain
light: B1 light with S35N, N58K
B10: GLS3000 N53L one-arm antibody (antibody, human IgG1, kappa, L234A L235A, N297A, name in Kabat numbering)
heavy: B1 heavy
chain: B1 chain
light: B1 light with S35N, N58L
B11: GLS3000 P95D one-arm antibody (antibody, human IgG1, kappa, L234A L235A, N297A, name in Kabat numbering)
heavy: B1 heavy
chain: B1 chain
light: B1 light with S35N, P100D
B12: GLS3000 P95E one-arm antibody (antibody, human IgG1, kappa, L234A L235A, N297A, name in Kabat numbering)
heavy: B1 heavy
chain: B1 chain
light: B1 light with S35N, P100E
B13: GLS3000 N53G one-arm antibody (antibody, human IgG1, kappa, L234A L235A, N297A, name in Kabat numbering)
heavy: B1 heavy
chain: B1 chain
light: B1 light with S35N, N58G
B14: GLS3000 N53Y one-arm antibody (antibody, human IgG1, kappa, L234A L235A, N297A, name in Kabat numbering)
heavy: B1 heavy
chain: B1 chain
light: B1 light with S35N, N58Y
B15: GLS3000 N30Y one-arm antibody (antibody, human IgG1, kappa, L234A L235A, N297A, name in Kabat numbering)
heavy: B1 heavy
chain: B1 chain
light: B1 light with S35Y
B16: GLS3000 N53E one-arm antibody (antibody, human IgG1, kappa, L234A L235A, N297A, name in Kabat numbering)
heavy: B1 heavy
chain: B1 chain
light: B1 light with S35N, N58E
B17: GLS3000 P95L one-arm antibody (antibody, human IgG1, kappa, L234A L235A, N297A, name in Kabat numbering)
heavy: B1 heavy
chain: B1 chain
light: B1 light with S35N, P100L
B18: GLS3000 Q27P one-arm antibody (antibody, human IgG1, kappa, L234A L235A, N297A, name in Kabat numbering)
heavy: B1 heavy
chain: B1 chain
light: B1 light with Q27P, S35N
B19: GLS3000 P95A one-arm antibody (antibody, human IgG1, kappa, L234A L235A, N297A, name in Kabat numbering)
heavy: B1 heavy
chain: B1 chain
light: B1 light with S35N, P100A
B20: GLS3000 N53T one-arm antibody (antibody, human IgG1, kappa, L234A L235A, N297A, name in Kabat numbering)
heavy: B1 heavy
chain: B1 chain
light: B1 light with S35N, N58T
B21: GLS3000 N53V one-arm antibody (antibody, human IgG1, kappa, L234A L235A, N297A, name in Kabat numbering)
heavy: B1 heavy
chain: B1 chain
light: B1 light with S35N, N58V
B22: GLS3000 N53F one-arm antibody (antibody, human IgG1, kappa, L234A L235A, N297A, name in Kabat numbering)
heavy: B1 heavy
chain: B1 chain
light: B1 light with S35N, N58F
B23: GLS3000 N53M one-arm antibody (antibody, human IgG1, kappa, L234A L235A, N297A, name in Kabat numbering)
heavy: B1 heavy
chain: B1 chain
light: B1 light with S35N, N58M
B24: GLS3000 P95S one-arm antibody (antibody, human IgG1, kappa, L234A L235A, N297A, name in Kabat numbering)
heavy: B1 heavy
chain: B1 chain
light: B1 light with S35N, P100S
B25: GLS3000 N53W one-arm antibody (antibody, human IgG1, kappa, L234A L235A, N297A, name in Kabat numbering)
heavy: B1 heavy
chain: B1 chain
light: B1 light with S35N, N58W
B26: GLS3000 N53A one-arm antibody (antibody, human IgG1, kappa, L234A L235A, N297A, name in Kabat numbering)
heavy: B1 heavy
chain: B1 chain
light: B1 light with S35N, N58A
B27: GLS3000 N53Q one-arm antibody (antibody, human IgG1, kappa, L234A L235A, N297A, name in Kabat numbering)
heavy: B1 heavy
chain: B1 chain
light: B1 light with S35N, N58Q
B28: GLS3000 N30W one-arm antibody (antibody, human IgG1, kappa, L234A L235A, N297A, name in Kabat numbering)
heavy: B1 heavy
chain: B1 chain
light: B1 light with S35W
B29: GLS3000 Q27L one-arm antibody (antibody, human IgG1, kappa, L234A L235A, N297A, name in Kabat numbering)
heavy: B1 heavy
chain: B1 chain
light: B1 light with Q27L, S35N
B30: GLS3000 P95G one-arm antibody (antibody, human IgG1, kappa, L234A L235A, N297A, name in Kabat numbering)
heavy: B1 heavy
chain: B1 chain
light: B1 light with S35N, P100G
B31: GLS3000 N30V one-arm antibody (antibody, human IgG1, kappa, L234A L235A, N297A, name in Kabat numbering)
heavy: B1 heavy
chain: B1 chain
light: B1 light with S35V
B32: GLS3000 Q27R one-arm antibody (antibody, human IgG1, kappa, L234A L235A, N297A, name in Kabat numbering)
heavy: B1 heavy
chain: B1 chain
light: B1 light with Q27R, S35N
B33: GLS3000 N53D one-arm antibody (antibody, human IgG1, kappa, L234A L235A, N297A, name in Kabat numbering)
heavy: B1 heavy
chain: B1 chain
light: B1 light with S35N, N58D
B34: GLS3000 N30T one-arm antibody (antibody, human IgG1, kappa, L234A L235A, N297A, name in Kabat numbering)
heavy: B1 heavy
chain: B1 chain
light: B1 light with S35T

Molecular target: T1, CD3ε homodimer protein (human, UniProt P07766 23-126, limits assumed)
T1 construct: also called CD3 (CD3ε)
Assay: SPR Biacore T200, CD3ε homodimer on chip;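 further: Light-chain single-residue variant antibodies injected over amine-coupled CD3ε homodimer on a CM4 chip at 25 °C, bound amount divided by that of the GLS3000-containing antibody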

T1 sequence (P07766 23-126 limits assumed): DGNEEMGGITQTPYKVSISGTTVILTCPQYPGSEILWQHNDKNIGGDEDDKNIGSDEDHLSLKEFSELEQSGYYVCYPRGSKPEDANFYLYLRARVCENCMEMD

| Binder | ratio of amount bound vs unaltered GLS3000 |
| --- | --- |
| B1 | 0.29 |
| B2 | 0.85 |
| B3 | 0.5 |
| B4 | 1.18 |
| B5 | 1.58 |
| B6 | 0.69 |
| B7 | 0.88 |
| B8 | 0.81 |
| B9 | 1.08 |
| B10 | 0.56 |
| B11 | 0.24 |
| B12 | 0.39 |
| B13 | 0.76 |
| B14 | 0.67 |
| B15 | 1.04 |
| B16 | 0.54 |
| B17 | 0.24 |

| Binder | ratio of amount bound vs unaltered GLS3000 |
| --- | --- |
| B18 | 0.29 |
| B19 | 0.63 |
| B20 | 0.56 |
| B21 | 0.56 |
| B22 | 0.69 |
| B23 | 0.62 |
| B24 | 0.43 |
| B25 | 0.81 |
| B26 | 0.61 |
| B27 | 0.77 |
| B28 | 0.99 |
| B29 | 0.92 |
| B30 | 0.37 |
| B31 | 0.61 |
| B32 | 1.19 |
| B33 | 0.34 |
| B34 | 0.29 |
